In PMC6273887, “cDNA Isolation and Functional Characterization of UDP-D-glucuronic Acid 4-Epimerase Family from Ornithogalum caudatum” (Molecules, 2016):

Substrate: O=C(O)[C@H]1O[C@H](OP(=O)(O)OP(=O)(O)OC[C@H]2O[C@@H](n3ccc(=O)[nH]c3=O)[C@H](O)[C@@H]2O)[C@H](O)[C@@H](O)[C@@H]1O
Experiment: HPLC of UDP-GalA formation, Lineweaver-Burk plot
Assay type: biochemical, Albuca bracteata
Conditions: 100 mM PBS, pH 7.8, 37 °C, 20 min, 0.156-10 mM UDP-GlcA, unpurified Pichia supernatant, substrate misprinted UDP-D-Glc, UDP-GlcA in b32 and b56

B1: OcUGlcAE3 (Albuca bracteata) (protein)
chain: MDAMISPSTPGKFKPEKPHHHLHHHHHRPLFRLQHSPLFKCGLIVVCASVVVVLLLCLAPSHPSSSSSSSSSPFAASRIERRSLSASSSSSWGGAEWEKRVRYSARIRRVGGFSVLVTGAGGFVGTHVSAALKRRGDGVLGLDCFNDYYEPSLKRARQALLDRIGVFVVEGDINDGPLLRKLFDVVPFTHVMHLAAQAGVRYAMKNPASYVHSNIAGLVTLLEACKSADPQPAVVWASSSSVYGLNTKVPFSEFHRTDRPASLYAATKKAGEEIAHTYNHIYGLSITGLRFFTVYGPWGRPDMAYFFFTNDLLNGKPITIFEGPKGESVARDFTYIDDIVQGCIGALDTAKKSTGTGGKKRGPAQLRVYNLGNTSPVPVTELVTILERLLKVKANKKVVKMPANGDVQFTHANISLAQRELGYHPTTDLKTGLKRFVRWYIEYYNPPGVASLTKKSARSNSS
notes: full-length ORF (1389 bp); 12,000 g/160,000 g lysate supernatant, unpurified
Km: 170 ± 70 µM
